Source: article PMC8480667 (The Journal of Experimental Medicine, 2021)
Each block holds one binder with its values, some of them ahead of it.

How the values were obtained:
[1] = target: rat α1β3 GABAA receptor on HEK293T cells (Rattus norvegicus, UniProt P62813;P63079); test: immunostaining of cells or tissue
[2] = target: human α1β3γ2 GABAA receptor on HEK293T cells (Homo sapiens, UniProt P14867;P28472;P18507); test: flow cytometry on cells
[3] = target: rat α1β3γ2 GABAA receptor on HEK293T cells (Rattus norvegicus, UniProt P62813;P63079;P18508); test: flow cytometry on cells
[4] = target: rodent α4β3γ2 GABAA receptor on COS7 cells (Rattus norvegicus (α4 rat; β3, γ2 …, UniProt P28471;P63079;P18508); test: immunostaining of cells or tissue
[5] = target: rodent α1β3γ2 GABAA receptor on COS7 cells (Rattus norvegicus (alpha1, beta3); …, UniProt P62813;P63079;P18508); test: immunostaining of cells or tissue
[6] = target: rodent GABAA receptor β3 subunit alone on COS7 cells (Rattus norvegicus, UniProt P63079); test: immunostaining of cells or tissue
[7] = target: rodent α1β3 GABAA receptor on COS7 cells (Rattus norvegicus, UniProt P62813;P63079); test: immunostaining of cells or tissue
[8] = target: rodent α5β3γ2 GABAA receptor on COS7 cells (Rattus norvegicus (paper: rodent), UniProt P19969;P63079;P18508); test: immunostaining of cells or tissue
[9] = target: rodent α3β3γ2 GABAA receptor on COS7 cells (Rattus norvegicus (α3 rat; β3, γ2 …, UniProt P20236;P63079;P18508); test: immunostaining of cells or tissue
[10] = target: rodent GABAA receptor γ2 subunit alone on COS7 cells (Rattus norvegicus (paper: rodent), UniProt P18508); test: immunostaining of cells or tissue
[11] = target: rodent α2β3γ2 GABAA receptor on COS7 cells (Rattus norvegicus (paper: rodent), UniProt P23576;P63079;P18508); test: immunostaining of cells or tissue
rodent α2β3γ2 GABAA receptor on COS7 cells, sequence (P23576 29-451, chain 1 of 3): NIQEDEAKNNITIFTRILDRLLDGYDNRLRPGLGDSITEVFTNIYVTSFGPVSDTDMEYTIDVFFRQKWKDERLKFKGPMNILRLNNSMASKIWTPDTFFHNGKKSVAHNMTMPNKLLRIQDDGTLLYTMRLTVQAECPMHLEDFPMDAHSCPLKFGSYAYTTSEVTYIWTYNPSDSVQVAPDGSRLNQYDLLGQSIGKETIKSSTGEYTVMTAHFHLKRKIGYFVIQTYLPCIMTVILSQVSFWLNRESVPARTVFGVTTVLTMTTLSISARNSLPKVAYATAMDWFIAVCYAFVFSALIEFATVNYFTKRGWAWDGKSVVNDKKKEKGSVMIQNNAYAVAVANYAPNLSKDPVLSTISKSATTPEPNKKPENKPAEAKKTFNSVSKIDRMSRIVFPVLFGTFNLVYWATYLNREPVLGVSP
rodent α2β3γ2 GABAA receptor on COS7 cells, sequence (P63079 26-473, chain 2 of 3): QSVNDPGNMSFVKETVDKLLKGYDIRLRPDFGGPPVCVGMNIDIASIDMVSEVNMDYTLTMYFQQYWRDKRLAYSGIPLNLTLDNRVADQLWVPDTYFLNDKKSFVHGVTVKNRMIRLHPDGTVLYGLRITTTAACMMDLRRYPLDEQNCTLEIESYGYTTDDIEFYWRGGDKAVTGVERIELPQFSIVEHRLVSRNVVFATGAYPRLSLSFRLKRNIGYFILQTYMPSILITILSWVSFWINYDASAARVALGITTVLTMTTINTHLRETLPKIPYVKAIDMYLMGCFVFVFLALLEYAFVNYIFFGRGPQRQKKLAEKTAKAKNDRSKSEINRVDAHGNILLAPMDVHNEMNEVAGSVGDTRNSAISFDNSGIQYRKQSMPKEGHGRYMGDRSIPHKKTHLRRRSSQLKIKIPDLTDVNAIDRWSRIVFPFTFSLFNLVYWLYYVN
rodent α2β3γ2 GABAA receptor on COS7 cells, sequence (P18508 39-466, chain 3 of 3): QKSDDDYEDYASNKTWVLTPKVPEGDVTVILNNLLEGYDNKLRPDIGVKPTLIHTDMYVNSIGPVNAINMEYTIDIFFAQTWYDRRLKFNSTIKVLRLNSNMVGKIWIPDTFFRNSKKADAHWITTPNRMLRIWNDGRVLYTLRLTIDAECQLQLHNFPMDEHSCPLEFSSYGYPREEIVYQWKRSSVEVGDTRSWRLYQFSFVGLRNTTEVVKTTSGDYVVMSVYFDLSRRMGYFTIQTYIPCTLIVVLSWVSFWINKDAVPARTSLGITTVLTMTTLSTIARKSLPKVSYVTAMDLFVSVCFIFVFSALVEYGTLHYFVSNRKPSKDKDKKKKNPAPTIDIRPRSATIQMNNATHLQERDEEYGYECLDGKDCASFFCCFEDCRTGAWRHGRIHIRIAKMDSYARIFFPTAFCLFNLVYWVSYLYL

human α1β3γ2 GABAA receptor on HEK293T cells, sequence (P14867 28-456, chain 1 of 3): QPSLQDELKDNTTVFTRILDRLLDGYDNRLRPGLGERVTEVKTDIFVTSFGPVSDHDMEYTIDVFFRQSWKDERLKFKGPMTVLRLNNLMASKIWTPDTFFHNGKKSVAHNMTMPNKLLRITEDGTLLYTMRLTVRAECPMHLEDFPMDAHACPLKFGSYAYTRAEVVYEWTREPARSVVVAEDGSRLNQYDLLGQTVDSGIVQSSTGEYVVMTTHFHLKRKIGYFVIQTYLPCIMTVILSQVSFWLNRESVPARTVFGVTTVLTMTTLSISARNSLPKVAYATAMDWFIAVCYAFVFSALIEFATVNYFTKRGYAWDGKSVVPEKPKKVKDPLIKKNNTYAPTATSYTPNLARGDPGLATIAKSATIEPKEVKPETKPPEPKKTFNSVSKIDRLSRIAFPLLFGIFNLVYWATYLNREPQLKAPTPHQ
human α1β3γ2 GABAA receptor on HEK293T cells, sequence (P28472 26-473, chain 2 of 3): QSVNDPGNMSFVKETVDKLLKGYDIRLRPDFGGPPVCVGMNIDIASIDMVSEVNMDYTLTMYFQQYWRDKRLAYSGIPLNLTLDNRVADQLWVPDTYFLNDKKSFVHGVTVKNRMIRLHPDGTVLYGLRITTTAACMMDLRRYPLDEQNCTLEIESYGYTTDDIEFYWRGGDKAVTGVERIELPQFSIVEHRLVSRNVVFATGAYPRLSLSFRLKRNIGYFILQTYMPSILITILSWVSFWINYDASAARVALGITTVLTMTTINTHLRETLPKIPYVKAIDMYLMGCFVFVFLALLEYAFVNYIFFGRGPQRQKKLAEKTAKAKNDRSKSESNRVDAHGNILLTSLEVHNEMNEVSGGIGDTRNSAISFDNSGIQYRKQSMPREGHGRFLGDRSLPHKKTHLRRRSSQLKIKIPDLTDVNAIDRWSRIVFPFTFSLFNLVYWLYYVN
human α1β3γ2 GABAA receptor on HEK293T cells, sequence (P18507 40-475, chain 3 of 3): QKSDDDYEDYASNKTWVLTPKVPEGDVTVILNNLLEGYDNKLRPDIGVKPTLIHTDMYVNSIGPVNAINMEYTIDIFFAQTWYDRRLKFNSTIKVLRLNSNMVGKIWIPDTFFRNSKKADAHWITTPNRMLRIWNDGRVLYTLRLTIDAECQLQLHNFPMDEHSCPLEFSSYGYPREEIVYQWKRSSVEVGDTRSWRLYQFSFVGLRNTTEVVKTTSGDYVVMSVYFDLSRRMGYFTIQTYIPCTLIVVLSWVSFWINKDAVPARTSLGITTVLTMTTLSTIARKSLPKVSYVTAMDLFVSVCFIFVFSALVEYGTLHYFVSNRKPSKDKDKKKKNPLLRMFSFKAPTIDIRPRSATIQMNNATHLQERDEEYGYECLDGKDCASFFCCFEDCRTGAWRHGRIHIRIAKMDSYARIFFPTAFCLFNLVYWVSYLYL
rodent α3β3γ2 GABAA receptor on COS7 cells (Rattus norvegicus, sequence (P20236 29-493, chain 1 of 3): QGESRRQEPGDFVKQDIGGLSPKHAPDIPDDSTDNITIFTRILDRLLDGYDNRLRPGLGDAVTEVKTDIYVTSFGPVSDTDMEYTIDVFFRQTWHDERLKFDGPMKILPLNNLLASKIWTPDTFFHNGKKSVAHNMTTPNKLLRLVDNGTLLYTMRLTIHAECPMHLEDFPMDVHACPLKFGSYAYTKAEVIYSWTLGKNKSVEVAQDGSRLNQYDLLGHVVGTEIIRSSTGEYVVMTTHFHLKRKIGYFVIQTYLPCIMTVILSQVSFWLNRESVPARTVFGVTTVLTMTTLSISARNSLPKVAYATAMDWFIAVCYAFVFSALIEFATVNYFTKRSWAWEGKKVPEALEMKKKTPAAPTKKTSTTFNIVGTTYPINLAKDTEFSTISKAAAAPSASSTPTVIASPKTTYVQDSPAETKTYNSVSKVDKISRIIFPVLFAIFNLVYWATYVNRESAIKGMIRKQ
rodent α3β3γ2 GABAA receptor on COS7 cells (Rattus norvegicus, sequence (P63079 26-473, chain 2 of 3): as the sequence (P63079 26-473, chain 2 of 3) above
rodent α3β3γ2 GABAA receptor on COS7 cells (Rattus norvegicus, sequence (P18508 39-466, chain 3 of 3): as the sequence (P18508 39-466, chain 3 of 3) above
rodent GABAA receptor β3 subunit alone on COS7 cells, sequence (P63079 26-473): as the sequence (P63079 26-473, chain 2 of 3) above
rodent GABAA receptor γ2 subunit alone on COS7 cells, sequence (P18508 39-466): as the sequence (P18508 39-466, chain 3 of 3) above

binding result [1]: binds
binding result [2]: binds
binding result [3]: binds
binding result [4]: no binding (tested: 5 µg/ml)
binding result [5]: binds
binding result [6]: no binding (tested: 5 µg/ml)
binding result [7]: binds
binding result [8]: no binding (tested: 5 µg/ml)
binding result [9]: no binding (tested: 5 µg/ml)
binding result [10]: no binding (tested: 5 µg/ml)
binding result [11]: no binding (tested: 5 µg/ml)
B1: human monoclonal GABAAR antibody #113-115 (antibody, V domains shown)
VH: QVQLVQSGAEVKKPGASVKVSCKASGYTFISYDINWVRQATGQGLEWMGGMDPKSGNTGYAQKFQGRVTMTTNTAISTAYMELSSLRSEDTAVYYCVRGEQSYDRTGYSDWFDPWGQGTLVTVSS
VL: not shown

binding result [1]: no binding
binding result [2]: binds
binding result [3]: binds
binding result [4]: no binding (tested: 5 µg/ml)
binding result [5]: binds
binding result [6]: no binding (tested: 5 µg/ml)
binding result [7]: no binding (tested: 5 µg/ml)
binding result [8]: no binding (tested: 5 µg/ml)
binding result [9]: no binding (tested: 5 µg/ml)
binding result [10]: no binding (tested: 5 µg/ml)
binding result [11]: no binding (tested: 5 µg/ml)
B2: human monoclonal GABAAR antibody #113-175 (antibody, V domains shown)
VH: EVQLLESGEGLVQPGGSLRLSCAASGFTFKTYAMSWVRQAPGKGLEWVSAISGSGASTYYADFVEGRFTISRDNSKNTLYLQMNSLRAEDTAVYYCAKEPPAMVWFGGGYFDYWGQGTLVTVSS
VL: EIVLTQSPATLSLSPGERATLSCRASQSVSSYLAWYQQKPGQAPRLLIYDASNRATGIPARFSGSGSGTDFTLTISSLEPEDFAVYYCQQRSNWPPYSFGQGTKLEIK
